Measured values published in patent publication US20150307867.

Columns and labels:
GATA1 (Homo sapiens) = GATA1 (Homo sapiens) (UniProt P15976); conditions: ChIP-pyrosequencing, heterozygous primary human erythroblasts; input alleles balanced; about 60:40 G:T
TAL1 (Homo sapiens) = TAL1 (Homo sapiens) (UniProt P17542); conditions: ChIP-pyrosequencing, heterozygous primary human erythroblasts; input alleles balanced; about 60:40 G:T
TAL1 (Homo sapiens), sequence (P17542 whole entry): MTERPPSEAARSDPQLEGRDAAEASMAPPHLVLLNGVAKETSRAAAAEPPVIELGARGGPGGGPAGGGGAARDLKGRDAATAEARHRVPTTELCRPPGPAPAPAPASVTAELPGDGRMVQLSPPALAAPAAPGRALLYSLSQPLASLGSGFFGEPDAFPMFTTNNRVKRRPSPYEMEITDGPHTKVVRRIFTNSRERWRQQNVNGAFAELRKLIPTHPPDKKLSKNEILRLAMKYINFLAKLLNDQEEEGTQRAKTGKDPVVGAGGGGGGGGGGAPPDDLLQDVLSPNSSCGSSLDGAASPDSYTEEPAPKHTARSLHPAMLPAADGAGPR

GATA1 (Homo sapiens), sequence (P15976 whole entry): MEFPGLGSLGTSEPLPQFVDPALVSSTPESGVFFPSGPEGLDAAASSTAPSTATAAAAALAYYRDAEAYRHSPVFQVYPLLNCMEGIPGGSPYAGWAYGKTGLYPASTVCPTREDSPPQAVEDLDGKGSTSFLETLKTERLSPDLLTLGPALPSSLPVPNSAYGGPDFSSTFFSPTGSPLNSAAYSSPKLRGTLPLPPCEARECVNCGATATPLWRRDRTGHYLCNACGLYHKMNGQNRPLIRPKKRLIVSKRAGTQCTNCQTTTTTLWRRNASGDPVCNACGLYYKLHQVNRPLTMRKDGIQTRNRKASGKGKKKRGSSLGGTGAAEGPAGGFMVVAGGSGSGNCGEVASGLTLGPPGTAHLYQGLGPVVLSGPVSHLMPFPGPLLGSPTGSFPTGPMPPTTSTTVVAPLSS

Substance | binding signal (% of alleles in ChIP) (GATA1 (Homo sapiens)) | binding signal (% of alleles in ChIP) (TAL1 (Homo sapiens))
BCL11A DHS +62 rs1427407 T-allele | 40 | 40
CTGNNNNNNNNNGATA (double strand) [BCL11A DHS +62 rs1427407 G-allele (half-E-box/GATA motif)] | 60 | 60
